In publication PMC12637021, “Talin–tensin3 interactions regulate fibrillar adhesion formation and tensin3 phase separation” (The Journal of Cell Biology, 2025):

What was measured:
TNS3KO cells = experiment: FN fibrils, rescue of TNS3KO cells; assay type: cell-based, human; conditions: vs TNS3-WT; IST9 antibody; 40 × 40 μm squares; n = 56 (WT) and 54 (L702E) cells
Description: (§1) Cells were fixed in 4% paraformaldehyde (PFA, Sigma-Aldrich), which had been prewarmed to 37°C for 15 min before being washed three times with PBS. For immunofluorescence staining, cells were permeabilized with 0.5% Triton X-100 (Sigma-Aldrich) at room temperature for 5 min before being washed three times with PBS. Blebbistatin (Tocris Bioscience) was diluted in dimethyl sulfoxide (Sigma-Aldrich) and used at a final concentration of 50 μM. […]
To analyze the FN fibrils, the images were background-subtracted (rolling ball), before 40 × 40 μm square boxes were applied for particle analysis to count FN fibrils larger than 0.2 μm^2. The FN coverage was calculated by dividing the area covered by FN fibrils by the total area of the box (1,600 μm^2).

U2OS TNS3KO cells = experiment: α5 integrin-positive FBs, rescue of TNS3KO cells; assay type: cell-based, human; conditions: vs mCh-TNS3-WT; FN-coated, overnight; SNAKA51 antibody; n = 37 (WT) and 47 (L702E) cells
Description: as §1
Analysis of cell adhesion sites, FN fibrils, and LLPS condensates was performed using FIJI/ImageJ (version 1.54f) software ([Schindelin et al., 2012]). […] Prior to adhesion quantification, the images were background-subtracted using a rolling ball algorithm, followed by thresholding of adhesion sites and Analyse Particles functions in FIJI/ImageJ to quantify adhesions. Adhesion sites with sizes between 0.4 and 10 μm^2 were counted, except for adhesions in blebbistatin-treated cells, which were counted with sizes between 0.2 and 4 μm^2. […]

NIH3T3 cells [1] = experiment: FRAP of GFP-TNS3 in adhesions; assay type: cell-based, mouse; conditions: vs TNS3-WT; 37°C; n = 27 (WT) and 26 (L702E) adhesions
Description: Transfected NIH3T3 cells were incubated in prewarmed DMEM medium at 37°C for 1 h to equilibrate prior to imaging. FRAP experiments were performed using a spinning disk confocal microscope as described above. Slidebook software (version 6.0.3, 3I) was used to set up the experiment. Regions of interest (ROIs) were manually adjusted to the shape of adhesion. A 488-nm laser was used at 100% power to bleach one to three adhesion ROIs per cell. Three prebleach images were acquired, followed by one image every 10 s for 3 min after bleach. Time-lapse images were analyzed using FIJI/ImageJ software ([Schindelin et al., 2012]) to obtain the intensity values of three control unbleached control ROIs and bleached ROIs over time. Values were background-subtracted, and measurements were corrected with the control values of the unbleached ROIs to compensate for any overall fluorescence loss. Intensity values were then normalized to the first postbleach value; normalized data were fitted to a one-phase association model Y=Y0+(Plateau-Y0)*(1-exp(-K*x)) using GraphPad Prism 10 software. Coefficients of the curve fit were extracted and transformed to generate the mobile fraction and halftime of recovery.

NIH3T3 cells [2] = experiment: tensin3 condensate formation, NIH3T3 cells; assay type: cell-based, mouse
Description: To establish a correlation between tensin3 expression and condensation formation, a maximum intensity Z-projection was performed on Z-stack images of NIH3T3 cells (step depth 0.2 μm). The integrated fluorescence intensity was measured by normalizing the mean pixel intensity of each cell to the average of all values in cells expressing mCh-TNS3. To measure the condensate coverage in NIH3T3 cells, the images were background-subtracted (rolling ball) and then thresholded. This was followed by the Analyse Particles function in FIJI/ImageJ to select round condensate structures (circularity 0.7–1.0) ([Bussi et al., 2023]; [Dumelie et al., 2024]) with a size larger than 0.1 μm^2. The same settings were applied to quantify the number of condensates in NIH3T3 and HFF cells.
The percentage of NIH3T3 cells transfected with mCh-TNS3 that form phase-separated condensates was quantified manually in images (610 × 499 μm) acquired with a 20× objective. To quantify the mean radius (R) of the condensates, the area covered by the condensates was divided by the number of condensates for each cell to obtain the mean size (A) of the condensates, followed by the formula of R = √(A/3.14).

B1: TNS3-L702E: tensin3 carrying the L702E point mutation that blocks the interaction with talin (protein, UniProt Q68CZ2 1-1445, looked up, variant L702E)
Tensin-3: MEEGHGLDLTYITERIIAVSFPAGCSEESYLHNLQEVTRMLKSKHGDNYLVLNLSEKRYDLTKLNPKIMDVGWPELHAPPLDKMCTICKAQESWLNSNLQHVVVIHCRGGKGRIGVVISSYMHFTNVSASADQALDRFAMKKFYDDKVSALMQPSQKRYVQFLSGLLSGSVKMNASPLFLHFVILHGTPNFDTGGVCRPFLKLYQAMQPVYTSGIYNVGPENPSRICIVIEPAQLLKGDVMVKCYHKKYRSATRDVIFRLQFHTGAVQGYGLVFGKEDLDNASKDDRFPDYGKVELVFSATPEKIQGSEHLYNDHGVIVDYNTTDPLIRWDSYENLSADGEVLHTQGPVDGSLYAKVRKKSSSDPGIPGGPQAIPATNSPDHSDHTLSVSSDSGHSTASARTDKTEERLAPGTRRGLSAQEKAELDQLLSGFGLEDPGSSLKEMTDARSKYSGTRHVVPAQVHVNGDAALKDRETDILDDEMPHHDLHSVDSLGTLSSSEGPQSAHLGPFTCHKSSQNSLLSDGFGSNVGEDPQGTLVPDLGLGMDGPYERERTFGSREPKQPQPLLRKPSVSAQMQAYGQSSYSTQTWVRQQQMVVAHQYSFAPDGEARLVSRCPADNPGLVQAQPRVPLTPTRGTSSRVAVQRGVGSGPHPPDTQQPSPSKAFKPRFPGDQVVNGAGPELSTGPSPGSPTLDIDQSIEQENRLILELDPTFEPIPTHMNALGSQANGSVSPDSVGGGLRASSRLPDTGEGPSRATGRQGSSAEQPLGGRLRKLSLGQYDNDAGGQLPFSKCAWGKAGVDYAPNLPPFPSPADVKETMTPGYPQDLDIIDGRILSSKESMCSTPAFPVSPETPYVKTALRHPPFSPPEPPLSSPASQHKGGREPRSCPETLTHAVGMSESPIGPKSTMLRADASSTPSFQQAFASSCTISSNGPGQRRESSSSAERQWVESSPKPMVSLLGSGRPTGSPLSAEFSGTRKDSPVLSCFPPSELQAPFHSHELSLAEPPDSLAPPSSQAFLGFGTAPVGSGLPPEEDLGALLANSHGASPTPSIPLTATGAADNGFLSHNFLTVAPGHSSHHSPGLQGQGVTLPGQPPLPEKKRASEGDRSLGSVSPSSSGFSSPHSGSTISIPFPNVLPDFSKASEAASPLPDSPGDKLVIVKFVQDTSKFWYKADISREQAIAMLKDKEPGSFIVRDSHSFRGAYGLAMKVATPPPSVLQLNKKAGDLANELVRHFLIECTPKGVRLKGCSNEPYFGSLTALVCQHSITPLALPCKLLIPERDPLEEIAESSPQTAANSAAELLKQGAACNVWYLNSVEMESLTGHQAIQKALSITLVQEPPPVSTVVHFKVSAQGITLTDNQRKLFFRRHYPVNSVIFCALDPQDRKWIKDGPSSKVFGFVARKQGSATDNVCHLFAEHDPEQPASAIVNFVSKVMIGSPKKV
modifications: mCherry or GFP tag
TNS3KO cells
  fewer FN fibrils: over 70%
U2OS TNS3KO cells
  reduction in centrally located α5 integrin-positive FBs: 55%
NIH3T3 cells [1]
  halftime of recovery (FRAP): significantly higher
  mobile fraction (FRAP): significantly higher
NIH3T3 cells [2]; n = 181 cells (WT), 168 cells (L702E)
  Spearman's r, expression level vs condensate coverage: 0.9013
NIH3T3 cells [2]; vs TNS3-WT, condensates >0.1 μm^2, circularity 0.7–1, n = 68 (WT) and 100 (L702E) cells
  fold increase in number of condensates: 2.2 fold
NIH3T3 cells [2]; vs TNS3-WT, mean radius
  condensate size: larger
